Source: publication PMC3334968, “Development of a Tetrameric Streptavidin Mutein with Reversible Biotin Binding Capability: Engineering a Mobile Loop as an Exit Door for Biotin” (PLoS ONE, 2012)

Target: the molecule itself
Assay: SDS-PAGE of unboiled samples; oligomeric state in SDS-PAGE, samples not boiled, without biotin, with or without 0.7 M β-mercaptoethanol

B1: 8-aa-loop-H127C mutein (streptavidin) (natural protein, UniProt P22629 25-183, looked up)
chain: DPSKDSKAQVSAAEAGITGTWYNQLGSTFIVTAGADGALTGTYESAVGNAESRYVLTGRYDSAPATDGSGTALGWTVAWKNNYRNAHSATTWSGQYVGGAEARINTQWLLTSGDSSNGSDGSTLVGCDTFTKVKPSAASIDAAKKAGVNNGNPLDAVQQ
modifications: disulfide bond between the Cys-127 residues of adjacent subunits
notes: streptavidin; loop7-8 (residues 114-121) replaced and H127C added; SDS-PAGE was done without biotin; also called MH127C; 8-aa-loop-H127 mutein; source: B. subtilis WB800, secreted, purified from culture supernatant (biotin-agarose)
stoichiometry N: 4
